Laboratory results reported in US20260116982A1.

Molecular target: CD1a antigen on CD1a+ T-ALL cells (Jurkat, MOLT4, primary cortical T-ALL blasts) and cortical thymocytes (human) (UniProt P06126)
Test: cell-based or functional assay

- specific cell lysis of CD1a+ T-ALL cell lines (Jurkat, MOLT4), 16 h assay, E:T 2:1 or 4:1: 50 to 80%
Substance: CD1a CAR (second-generation chimeric antigen receptor with the anti-CD1a scFv derived from clone NA1/34.HLK, CD8 TM spacer, 4-1BB (CD137) and CD3ζ signaling domains), expressed on T cells
